The star is where a group is joined. DABCYL = CN(C)c1ccc(/N=N/c2ccc(C(=O)*)cc2)cc1; EDANS = O=S(=O)(O)c1cccc2c(NCCN*)cccc12
Assays:
[1] = target: T1, internally quenched fluorogenic α-secretase substrate … (SMILES …); assay: cell-based or functional assay
T1 peptide: Ac-RE(EDANS)VHHQKLVFK(DABCYL)R-OH

[2] = target: T1, internally quenched fluorogenic …; assay: cell-based or functional assay

B1: ASec-1B scFv (scFv)
scFv: DVLMETTQTPLTLSVTIGQPASISCKSSQSLLHTDGKTYLIWLLQRPGQSPKRLIYLVSKLDSGVPDRFTGSGSGTDFTLKISRVEAEDLGVYYCWQGTHFPQTFGGGTKLEIKRADAAPGGGGSGGGGSGGGGSGSESGGGLVKPGGSLKLSCAASGFAFSIYGMETSWFRQTPEKRLEWVATISGGDTYTYYPDSVKGRFTISRDNAKNNLFLQMETSSLRSEDTPLYFCGRSQKLHPWGQGLVTVSA
With B1 the “specificity constant (kcat/KM) relative to parent ASec-1 scFv” value [1] was 2.8 fold, the “kcat (per min), hydrolysis of α-secretase Aβ fluorogenic substrate” value [2] was 61 per min and the “kcat/Km (µM/min), hydrolysis of α-secretase Aβ fluorogenic substrate” value [2] was 40.4 µM/min.

B2: ASec-1A scFv (scFv)
scFv: DVLMETTQTPLTLSVTIGQPASISCKSSQSLLHTDGKTYLIWLLQRPGQSPKRLIYLVSKLDSGVPDRFTGSGSGTDFTLKISRVEAEDLGVYYCWQGTHFPQTFGGGTKLEIKRADAAPGGGGSGGGGSGGGGSGSESGGGLVKPGGSLKLSCAASGFTFSIYGMETFWFRQTPEKRLEWVATISGGDTYTYYPDSVKGRFTISRDNAKNNLFLQMETSSLRSEDTPLYFCGRNHQITMETWGQGTLVTVSA
In the case of B2, the “specificity constant (kcat/KM) relative to parent ASec-1 scFv” value [1] is reported as 5.6 fold, the “kcat (per min), hydrolysis of α-secretase Aβ fluorogenic substrate” value [2] is reported as 34.8 per min and the “kcat/Km (µM/min), hydrolysis of α-secretase Aβ fluorogenic substrate” value [2] is reported as 58.1 µM/min.
